Where two headings read alike, the source gives them in different places.
Experiments:
Assay in all cases: cryo-EM structure
[1] = target: SARS-CoV-2 Delta prefusion-stabilized soluble trimeric spike ectodomain (S-trimer) (SARS-CoV-2) (UniProt P0DTC2)
[2] = target: SARS-CoV-2 Omicron prefusion-stabilized soluble trimeric spike ectodomain (S-trimer) (SARS-CoV-2) (UniProt P0DTC2)
[3] = target: SARS-CoV-2 Omicron prefusion-stabilized soluble trimeric spike ectodomain (S-trimer) (SARS-CoV-2) (UniProt P0DTC2); remark: listed apart in the source

Substance	stoichiometry N [1] [protomers]	stoichiometry N [2] [protomers]	stoichiometry N [3] [protomers]
SARS-CoV-2 Delta prefusion-stabilized soluble trimeric spike ectodomain (S-trimer) (from UniProt P0DTC2 14-1208) (natural protein)	3	–	–
SARS-CoV-2 Omicron prefusion-stabilized soluble trimeric spike ectodomain (S-trimer) (from UniProt P0DTC2 14-1208) (natural protein)	–	3	3

Reference: paper PMC8786603
